Experimental data from patent publication US20250304673A1 (CATALYM, published 2025).

Assays:
[1] = target: T1, recombinant human GDF-15 (human, Disulfide-linked homodimer: two copies of this chain form the 24.6 kDa molecule of Table 1.); experiment: SPR, Biacore T3000, antibody captured by anti-human IgG Fc, GDF-15 injected
T1 construct: also called hGDF-15; Growth Differentiation Factor-15
T1 chain: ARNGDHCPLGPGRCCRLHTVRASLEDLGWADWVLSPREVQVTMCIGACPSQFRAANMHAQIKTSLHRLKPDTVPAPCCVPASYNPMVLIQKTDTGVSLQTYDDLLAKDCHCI
Description: (§1) Affinity of CTL-002 to recombinant human GDF-15 was determined by measuring surface plasmon resonance on a Biacore T3000. In addition, the affinity to cynomolgus rat and mouse GDF-15 was measured (see Table 2).
(§2) All experiments were performed in 10 mM HEPES buffer, pH 7.4, 150 mM NaCl, 3.4 mM EDTA and 0.05% Tween. anti-human IgG Fc specific antibody (Jackson, Order #109-005-008, Lot #111148) was covalently immobilized by EDC/NHS chemistry on Biacore CM5 Chips (GE Healthcare, Order #61144275, Lot #10236645). For kinetic characterization of the antigen-antibody interaction pulses of increasing GDF-15 concentrations (e.g. 156.3 pM, 312 pM, 625 pM, 1,250 pM) were injected at a flow rate of 30 μl/min. After each measurement cycle (8 min of association followed by 30 min of dissociation) the antibody-antigen complex was resolved by regeneration of the surface with 10 mM glycine-HCl at pH 2.0. For calculation of the dissociation constant of CTL-002 the association and dissociation phases were recorded and evaluated by global fitting using the software BIAevaluation 4.1. For global fit analysis only, these antigen concentrations were taken into account, which allowed the analysis following the Langmuir 1:1 binding model or 1:1 binding with drifting baseline.

[2] = target: T2, mouse GDF-15 (mouse, UniProt Q9Z0J7 189-303); experiment: as above
T2 construct: the construct used in SPR is not described; also called mGDF-15; murine GDF-15
T2 sequence (looked up): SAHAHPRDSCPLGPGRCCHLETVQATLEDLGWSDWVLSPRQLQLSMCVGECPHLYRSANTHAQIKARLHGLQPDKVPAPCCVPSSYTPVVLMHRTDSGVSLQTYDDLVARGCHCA
Description: as §1, §2

[3] = target: T3, rat GDF-15 (rat, UniProt Q9Z0J6 189-303, limits assumed); experiment: as above
T3 construct: the construct used in SPR is not described
T3 sequence (looked up): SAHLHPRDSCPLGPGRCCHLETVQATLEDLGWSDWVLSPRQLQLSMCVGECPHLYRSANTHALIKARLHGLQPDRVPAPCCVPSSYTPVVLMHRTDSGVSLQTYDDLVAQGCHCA
Description: as §1, §2

[4] = target: cynomolgus GDF-15 (cynomolgus monkey); experiment: as above
[5] = target: T1, recombinant human GDF-15; experiment: cell-based or functional assay

B1: CTL-002 (antibody, human IgG4 S228P, kappa, V domains shown)
VH: QITLKESGPTLVKPTQTLTLTCTFSGFSLSTSGMGVSWIRQPPGKGLEWLAHIYWDDDKRYNPTLKSRLTITKDPSKNQVVLTMTNMDPVDTATYYCARSSYGAMDYWGQGTLVTVSS
VL: DIVLTQSPSFLSASVGDRVTITCKASQNVGTNVAWFQQKPGKSPKALIYSASYRYSGVPDRFTGSGSGTEFTLTISSLQPEDFAAYFCQQYNNFPYTFGGGTKLEIKR
notes: Humanized, hinge-stabilized IgG4 (IgG4 S228P) derived from mouse antibody B1-23; captured by anti-human IgG Fc on the chip in the SPR assay; also called visugromab; CTL-001 IgG4*
- Kd [1]: 0.0383 nM
- Kd [2]: 9.76 nM
- Kd [3]: 0.449 nM
- Kd [4]: 0.108 nM
- EC50 of CTL-002 in the flow-adhesion assay with T cells [5]: 707 ng/mL
- EC50 of rescue of CD8+ T-cell adhesion, flow-adhesion assay [5]: ~700 ng/mL
